B1: C10orf62 (parent)
chain: RALEEVEMKLQKNFLTQRENTIAG

Variants of: B1
Test: protein stability index of a GFP-peptide fusion (GPS, HEK-293T) (PSI 1-6); higher = more stable
Settings: c terminus: a fixed tail appended
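Note: lentivirally expressed fusions sorted by FACS into six bins by GFP to DsRed ratio, PSI derived from sequencing read proportions per bin multiplied by bin number.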

| Variant | protein stability index |
| --- | --- |
| RAYEEVEMKLQKNFLTQRENTIAG [L3Y] | 3.5 |
| RAAEEVEMKLQKNFLTQRENTIAG [L3A] | 4.17 |
| RAREEVEMKLQKNFLTQRENTIAG [L3R] | 4.09 |
| RAHEEVEMKLQKNFLTQRENTIAG [L3H] | 4.34 |
| RAEEEVEMKLQKNFLTQRENTIAG [L3E] | 5.08 |
| RATEEVEMKLQKNFLTQRENTIAG [L3T] | 4.12 |
| RAPEEVEMKLQKNFLTQRENTIAG [L3P] | 4.26 |
| RACEEVEMKLQKNFLTQRENTIAG [L3C] | 4.02 |
| RAMEEVEMKLQKNFLTQRENTIAG [L3M] | 3.86 |
| RAGEEVEMKLQKNFLTQRENTIAG [L3G] | 4.31 |
| RAFEEVEMKLQKNFLTQRENTIAG [L3F] | 4.04 |
| RAQEEVEMKLQKNFLTQRENTIAG [L3Q] | 4.47 |
| RANEEVEMKLQKNFLTQRENTIAG [L3N] | 4.91 |
| RADEEVEMKLQKNFLTQRENTIAG [L3D] | 4.8 |
| RAKEEVEMKLQKNFLTQRENTIAG [L3K] | 4.33 |
| RAWEEVEMKLQKNFLTQRENTIAG [L3W] | 2.95 |
| RAVEEVEMKLQKNFLTQRENTIAG [L3V] | 4.27 |
| RASEEVEMKLQKNFLTQRENTIAG [L3S] | 4.05 |
| RAIEEVEMKLQKNFLTQRENTIAG [L3I] | 4.17 |
| RALEDVEMKLQKNFLTQRENTIAG [E5D] | 3.67 |
| RALEGVEMKLQKNFLTQRENTIAG [E5G] | 3.6 |
| RALEFVEMKLQKNFLTQRENTIAG [E5F] | 2.11 |
| RALEVVEMKLQKNFLTQRENTIAG [E5V] | 1.51 |
| RALEYVEMKLQKNFLTQRENTIAG [E5Y] | 2.27 |

| Variant | protein stability index |
| --- | --- |
| RALEKVEMKLQKNFLTQRENTIAG [E5K] | 3.76 |
| RALEMVEMKLQKNFLTQRENTIAG [E5M] | 2.23 |
| RALEAVEMKLQKNFLTQRENTIAG [E5A] | 2.7 |
| RALETVEMKLQKNFLTQRENTIAG [E5T] | 3.02 |
| RALEQVEMKLQKNFLTQRENTIAG [E5Q] | 3.22 |
| RALEWVEMKLQKNFLTQRENTIAG [E5W] | 1.85 |
| RALELVEMKLQKNFLTQRENTIAG [E5L] | 2 |
| RALEHVEMKLQKNFLTQRENTIAG [E5H] | 3.02 |
| RALEIVEMKLQKNFLTQRENTIAG [E5I] | 1.93 |
| RALEPVEMKLQKNFLTQRENTIAG [E5P] | 3.19 |
| RALESVEMKLQKNFLTQRENTIAG [E5S] | 3.51 |
| RALERVEMKLQKNFLTQRENTIAG [E5R] | 3.12 |
| RALECVEMKLQKNFLTQRENTIAG [E5C] | 2.21 |
| RALENVEMKLQKNFLTQRENTIAG [E5N] | 3.98 |
| MALEEVEMKLQKNFLTQRENTIAG [R1M] | 3.33 |
| HALEEVEMKLQKNFLTQRENTIAG [R1H] | 3.69 |
| NALEEVEMKLQKNFLTQRENTIAG [R1N] | 4.37 |
| KALEEVEMKLQKNFLTQRENTIAG [R1K] | 3.6 |
| WALEEVEMKLQKNFLTQRENTIAG [R1W] | 3.15 |
| IALEEVEMKLQKNFLTQRENTIAG [R1I] | 2.91 |
| YALEEVEMKLQKNFLTQRENTIAG [R1Y] | 3.29 |
| FALEEVEMKLQKNFLTQRENTIAG [R1F] | 3.17 |
| LALEEVEMKLQKNFLTQRENTIAG [R1L] | 2.54 |
| AALEEVEMKLQKNFLTQRENTIAG [R1A] | 3.89 |

| Variant | protein stability index |
| --- | --- |
| DALEEVEMKLQKNFLTQRENTIAG [R1D] | 4.49 |
| QALEEVEMKLQKNFLTQRENTIAG [R1Q] | 3.5 |
| SALEEVEMKLQKNFLTQRENTIAG [R1S] | 3.85 |
| CALEEVEMKLQKNFLTQRENTIAG [R1C] | 1.89 |
| EALEEVEMKLQKNFLTQRENTIAG [R1E] | 4.39 |
| PALEEVEMKLQKNFLTQRENTIAG [R1P] | 4.55 |
| TALEEVEMKLQKNFLTQRENTIAG [R1T] | 4.32 |
| VALEEVEMKLQKNFLTQRENTIAG [R1V] | 3.1 |
| GALEEVEMKLQKNFLTQRENTIAG [R1G] | 4.34 |
| RALREVEMKLQKNFLTQRENTIAG [E4R] | 4 |
| RALMEVEMKLQKNFLTQRENTIAG [E4M] | 2.63 |
| RALKEVEMKLQKNFLTQRENTIAG [E4K] | 3.36 |
| RALSEVEMKLQKNFLTQRENTIAG [E4S] | 3.64 |
| RALDEVEMKLQKNFLTQRENTIAG [E4D] | 3.44 |
| RALHEVEMKLQKNFLTQRENTIAG [E4H] | 3.18 |
| RALCEVEMKLQKNFLTQRENTIAG [E4C] | 3.31 |
| RALLEVEMKLQKNFLTQRENTIAG [E4L] | 2.31 |
| RALYEVEMKLQKNFLTQRENTIAG [E4Y] | 2.56 |
| RALPEVEMKLQKNFLTQRENTIAG [E4P] | 4.36 |
| RALQEVEMKLQKNFLTQRENTIAG [E4Q] | 2.89 |
| RALNEVEMKLQKNFLTQRENTIAG [E4N] | 3.29 |
| RALVEVEMKLQKNFLTQRENTIAG [E4V] | 2.36 |
| RALIEVEMKLQKNFLTQRENTIAG [E4I] | 1.99 |
| RALWEVEMKLQKNFLTQRENTIAG [E4W] | 1.92 |

| Variant | protein stability index |
| --- | --- |
| RALFEVEMKLQKNFLTQRENTIAG [E4F] | 3.13 |
| RALAEVEMKLQKNFLTQRENTIAG [E4A] | 2.9 |
| RALTEVEMKLQKNFLTQRENTIAG [E4T] | 3.72 |
| RALGEVEMKLQKNFLTQRENTIAG [E4G] | 4.05 |
| RALEEGEMKLQKNFLTQRENTIAG [V6G] | 4.3 |
| RALEEDEMKLQKNFLTQRENTIAG [V6D] | 4.17 |
| RALEECEMKLQKNFLTQRENTIAG [V6C] | 3.56 |
| RALEEAEMKLQKNFLTQRENTIAG [V6A] | 3.19 |
| RALEEFEMKLQKNFLTQRENTIAG [V6F] | 3.76 |
| RALEEEEMKLQKNFLTQRENTIAG [V6E] | 4.75 |
| RFLEEVEMKLQKNFLTQRENTIAG [A2F] | 2.54 |
| RGLEEVEMKLQKNFLTQRENTIAG [A2G] | 4.1 |
| RRLEEVEMKLQKNFLTQRENTIAG [A2R] | 3.61 |
| RCLEEVEMKLQKNFLTQRENTIAG [A2C] | 3.27 |
| RHLEEVEMKLQKNFLTQRENTIAG [A2H] | 3.55 |
| RTLEEVEMKLQKNFLTQRENTIAG [A2T] | 3.83 |
| RLLEEVEMKLQKNFLTQRENTIAG [A2L] | 2.61 |
| RKLEEVEMKLQKNFLTQRENTIAG [A2K] | 3.7 |
| RILEEVEMKLQKNFLTQRENTIAG [A2I] | 2.66 |
| RVLEEVEMKLQKNFLTQRENTIAG [A2V] | 2.96 |
| RWLEEVEMKLQKNFLTQRENTIAG [A2W] | 2.29 |
| RMLEEVEMKLQKNFLTQRENTIAG [A2M] | 2.6 |

Reference: the supplement of paper PMC10567573
